This note sets out measurements from the nanobody polyreactivity screen of Harvey et al. (2022).

The data set is described as follows: yeast display, Sf9 membrane polyspecificity reagent, FACS + sequencing; frameworks hold sequencing errors. A digest of the protocol: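 A synthetic nanobody library was expressed on Saccharomyces cerevisiae BJ5465 by galactose induction for 36–48 hours. The library was stained for 1 hour at 4 °C with 10% biotinylated, detergent-solubilized Sf9 membrane reagent and enriched with streptavidin microbeads before FACS. Low and high (top ~1%) gates were set on anti-HA fluorescence for expression and streptavidin fluorescence for reagent binding, and each polyreactivity label reflects the gate of origin.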
For “QVQLVESGGGLVQAGGSLRISCAASGIIFAYAMGWYRQAPGKERELVAAISGRDGSTYYADSVKGRFTISRDNAKNTVYLQMISLKQEDTAVYFCAAGDYYLQDNYWGQGTQVTVSS”, the “polyreactivity (PSR sort gate)” value is “low polyreactivity”.

Take “QVQLVESGGGLVQAGGSLRISCAASGIILSDNAMGWYRQAPGKEREFVAAITGAGGSTYYADSVKGRFTISRDNAKNTVYLQMNSLKPEDTAVYYCAAESYPLSYSSATLSPSYEYWGQGTQVTVSS”: the “polyreactivity (PSR sort gate)” value was “low polyreactivity”.

On to “QVQLVESGGGLVQAGGSLRISCAASGITFFRNAMGWYRQAPGKERELVATITKSGGSTYYADSVKGRFTISRDNAKNTVYLQMNSLKPEDTAVYDCAAVRRYPVKYVAYDYWGQGTQVTVSS”, for which the “polyreactivity (PSR sort gate)” value is reported as “low polyreactivity”.

Turning to “QVQLVESGGGLVQAGGSLRISCAASGITFYFNAMGWFRQAPGKERDLVAVITSVGSTNYADSVKGRFTISRDNAKNTDYIQMNSLKPEDTAVYYCYRTSYVKTPTKRYNYWGQGTQVTVSS”, the “polyreactivity (PSR sort gate)” value is listed as “low polyreactivity”.

Take “QVQLVESGGGLVQAGGSLRISCAASGITFYRYTMGWYRQAPGKERELVAAISRSGSSTYYADSVKGRFTISRDNAKNTVDLQMNSLIPEDTAVYYCASRFGDMGYWGQGTQVTVSA”: the “polyreactivity (PSR sort gate)” value is on record as “high polyreactivity”.

For the sequence “QVQLVESGGGLVQAGGSLRISCAASGITLYGNVMGWYRQAPGKERELVAAISGGSTFYADSVKGRFTISRDNAKNTVYLQMNSLKPEDTAVYYCAAEWYGYGSNVPYYYWGQGTQVTVSS”, the “polyreactivity (PSR sort gate)” value is “low polyreactivity”.

For “QVQLVESGGGLVQAGGSLRISCAASGLSFYRYTMGWYRHAPGKEREFVAAITAGGSTYYADSVKGRFTISRDNAKNPVYLQMNRLKPEDTAVYYCAPRVLMEQYTYIKYDYWGQGTQVTVSS”, the “polyreactivity (PSR sort gate)” value is “high polyreactivity”.

For “QVQLVESGGGLVQAGGSLRISCAASGLTFDYYAMGSYRQAPGKERELVAAITSGSITYYADSVKGRFTISRDNAKNTVYLQMNSLKPEDTAVYYCAAKRTSFTARYGYWGLGTQVTVSS”, the “polyreactivity (PSR sort gate)” value is listed as “high polyreactivity”.

In the case of “QVQLVESGGGLVQAGGSLRISCAASGRIFAQYVMGWYRQAPGKERELVAAISSGGSTYYADSVKGRFTISRDNAKNTVYLQMNSLKPEDTAVYYCAARSRAHRVGRQPFDYWGQGTQVTVSS”, the “polyreactivity (PSR sort gate)” value is recorded as “high polyreactivity”.

Regarding “QVQLVESGGGLVQAGGSLRISCAASGRIFDNYAMGWNRQAPGKERELVAAISVSGDSTYYADSVKGRFTISRDNAKNTVYLQMNSLKPEDTAVYYCAVDPDSYWYLTWADEMYYWGQGTQVTVSS”, the “polyreactivity (PSR sort gate)” value is listed as “high polyreactivity”.

As for “QVQLVESGGGLVQAGGSLRISCAASGRIFFAYAMGWYRQAPGKERELVASITWSGSSTTYADSVKGRFTISRDNAKNTVYLQMNSLKPDDTAVYFCGSDPYFWGYHFRRYGSRGQGTQVTVSS”, the “polyreactivity (PSR sort gate)” value was “low polyreactivity”.

Take “QVQLVESGGGLVQAGGSLRISCAASGRIFKVYAMGWYRQAPGKERELVAAMSRSGGSTYYADSVKGRFTISRDNAKKTVYFQMNSLKPEDTAVYYCHAYFVYGHACGYDYWGQGSQVTVSS”: the “polyreactivity (PSR sort gate)” value is “high polyreactivity”.

In the case of “QVQLVESGGGLVQAGGSLRISCAASGRIFLFYAMGWYRQAPGKEREWVAAITYSGSTYYADSVKGRFTISRDNAKNTVYLQMNSLIPEDTAVYYCNARYRTYAGTYGYNYWGQGTQVTVSS”, the “polyreactivity (PSR sort gate)” value is on record as “high polyreactivity”.

On to “QVQLVESGGGLVQAGGSLRISCAASGRIFRQNTMGWYRQAPGKERELVAAISRSGGSTYYADSVKGRFTISRENAKNTVYLQMNSLKPEDTAVYYCNKVTYIVAIWGSDIYVPSEFGYWGQGTQVTVSS”, for which the “polyreactivity (PSR sort gate)” value is on record as “high polyreactivity”.

Turning to “QVQLVESGGGLVQAGGSLRISCAASGRIFRYYAMGWYRQAPGKERELVAAISNSGGRTYYADSVKRRFTISRDNAKNSVYLQMNSLKPEDTAVYYCKKAHSYRGVSDSDMGYWGQGTEVTVSS”, the “polyreactivity (PSR sort gate)” value is listed as “high polyreactivity”.

With “QVQLVESGGGLVQAGGSLRISCAASGRIFVVYVMGWYRQAPGKEREFVAAITWGGGNTYYADSVKGRFTISRDNAKNTVYLQMNSLKPEDTAVYYCNAVWYWGDMDYWGQGTQVTVSS”, the “polyreactivity (PSR sort gate)” value was “low polyreactivity”.

For the sequence “QVQLVESGGGLVQAGGSLRISCAASGRIYPVYVMGWYRQAPGKERELVAAINYNGGSTTYADSVKGRFTISRDNAKNTVYLQMNSLKPADTAVYYCAAGTPAYVETEYEYWGQGTQVTVSS”, the “polyreactivity (PSR sort gate)” value is on record as “low polyreactivity”.

“QVQLVESGGGLVQAGGSLRISCAASGRNFPNYAMGWYRQAPGKERELVAAITSSGGSTYYADSVKGRFTISRDNAKNTVYLQMNSLKPEDTAVYYCNAGSWIRNDYWGQGTQVTVSS”: the “polyreactivity (PSR sort gate)” value is given as “high polyreactivity”.

Consider “QVQLVESGGGLVQAGGSLRISCAASGRSFWTYAMGWYRQAPGKERELVAAITWRGGSTSYADSVTGRFTISRDTAKNTVYLQMHSLKPEDTAVYYCAADTYSYLRGTYEYDYWGQGTQVTVSS”, for which the “polyreactivity (PSR sort gate)” value is on record as “high polyreactivity”.

With “QVQLVESGGGLVQAGGSLRISCAASGRTFGSYSMGWYRQAPGNEREEVAAISLSAGSTYYADYVKGRFTISRDNAKNTVYLQMNRLKAEDTAVYYCAAGTKWYSQVYIYFYWGQGTQVTVSS”, the “polyreactivity (PSR sort gate)” value is listed as “low polyreactivity”.

Take “QVQLVESGGGLVQAGGSLRISCAASGRTFLKNTMGRYRQAPGKERELVAVITRNGDSTYADSVKGRFTISRDNAKNTVYLQMNSLKPEDTAVYYCATTYRDGVYELTTFDYWGQGTQVTVSS”: the “polyreactivity (PSR sort gate)” value was “low polyreactivity”.

Turning to “QVQLVESGGGLVQAGGSLRISCAASGRTFPRYAMGWYRQAPGKERELVAGISWSGGRTYYADSVKGRFTISRDNAKNTVYLQMNSLKPEDTAVYYCAVVSKNLSYRTTFYYWGQGTQVTVSS”, the “polyreactivity (PSR sort gate)” value was “high polyreactivity”.

In the case of “QVQLVESGGGLVQAGGSLRISCAASGRTFRVYSMGWYIQAPGKEWELVASISARSGSTYYADSVKGRFTISRDNAKNTVYLQLNSVKPEDTAVYYSAAARRGFKYDYWGQGTQVTVSS”, the “polyreactivity (PSR sort gate)” value was “high polyreactivity”.

For the sequence “QVQLVESGGGLVQAGGSLRISCAASGRTFVVYAMGWYRPAPGKERELVAAIRGSGGSTNYADSVKGRFTISRDNAKNTVYLQMNSLKPEDTAVYYCAATSSLGDFRYDYWGQGTQVTVSS”, the “polyreactivity (PSR sort gate)” value is “high polyreactivity”.

As for “QVQLVESGGGLVQAGGSLRISCAASGRTFYTYDMGWYRQAPGKERQLVAAISSSGSTYYADSVKGRFTISRDNAKNTVYLQMNSLKPEDTAGYYCNARTSRYRRGGDSWGQGTQVTVSS”, the “polyreactivity (PSR sort gate)” value was “high polyreactivity”.

With “QVQLVESGGGLVQAGGSLRISCAASGSIFARYAMGWYRQAPGKERELVAAISKRGGSTYYADSVKGRFTISRDNAKNTVYLQMNSLKPEDTAVYYCAAVSYPPYTTKMDYWGQGTLVTVSS”, the “polyreactivity (PSR sort gate)” value was “high polyreactivity”.

Consider “QVQLVESGGGLVQAGGSLRISCAASGSIFDPYAMGWYRQAPGKERELVAAITSGGSTYYADSVKGRFTISRDNAKNTVYLQMNSLIPEDTAVYYCAKDFDIYYSKYDYWGQGTQVTVSS”, for which the “polyreactivity (PSR sort gate)” value was “low polyreactivity”.

“QVQLVESGGGLVQAGGSLRISCAASGSIFGLYAMGWYRQAPGKERELVAAINQSGGSTSYADSVKGRFTISRDNAKNTVYLQMNSLKPEDTAVYYCNRVRLNSEGFDYWGQGTQVTVSS”: the “polyreactivity (PSR sort gate)” value is recorded as “low polyreactivity”.

On to “QVQLVESGGGLVQAGGSLRISCAASGSIFGYAMACYRQGPGKERELVAAITSSGGSTYYADSVKGRFTISRDNAKNTVYLHKNSLKPEDTAGYYCNAYLRWYITLLRFLAGGDYWGQGYQVTVSS”, for which the “polyreactivity (PSR sort gate)” value is “high polyreactivity”.

As to “QVQLVESGGGLVQAGGSLRISCAASGSIFGYYAMGWYRHSPGTERELVAAISWSDGSTYYADSVKGRFTISRDNAKNTVYLQMNSLKPEDTAVYYCAARFTPYITSDDGHYDYWGQGTQVTVSS”, the “polyreactivity (PSR sort gate)” value is reported as “low polyreactivity”.
